In patent US20230357364A1:

What was measured:
[1] = molecular target: SARS-CoV-2 spike on pseudovirus or live virus (USA-WA1/2020, WT) (SARS-CoV-2) (UniProt P0DTC2); test: cell-based or functional assay
[2] = molecular target: SARS-CoV-1 spike on pseudovirus (SARS-CoV-1) (UniProt P59594); test: cell-based or functional assay

Substance | PSV in HeLa-ACE2 cells IC50 [1] | live virus IC50 (HeLa-ACE2) [1] | live virus IC50 (Vero) [1] | PSV in HeLa-ACE2 cells IC50 [2]
REGN10933 (antibody) | 6 ng/mL | 2 ng/mL | 1 ng/mL | > 25000 ng/mL
REGN10987 (antibody) | 93 ng/mL | 5 ng/mL | 1 ng/mL | > 25000 ng/mL
